The labels stand for the following.
B1: Hairpin Ribozyme (parent)
chain: GUCCUCUUUCACGUGCGCGUGAAAGAGAGAAGUGAACCAGAGAAACACACGUUGUGGUAUAUUACCUGGUA

The variants in this series derive from B1. Kind of series: self-cleavage, relative activity (ratio to wild type); higher = more cleavage; co-transcriptional.
With GUCCUCUUUCACGUGCGCGUGAAAGAGAGAAGUGAACCAGAGAGACACACGUUGUGGGAUAUUACCUGGUA [A44G U58G], the self-cleavage worked out at 0.198.
As for GUCCUCUUUCACGUGCGCGUGAAAGAGAGAAGUGAACCAGAGAUACACACGUCGUGGUAUAUUACCUGGUA [A44U U53C], the figure is 0.0977.
As for GUCCUCUUUCACGUGCGCGUGAAAGAGAGAAGUGAACCAGAGAACCACACGUUGUGGUCUAUUACCUGGUA [A45C A59C], the figure is 0.358.
As for GUCCUCUUUCACGUGCGCGUGAAAGAGAGAAGUGAACCAGAGAACCACACGUUGUGGUUUAUUACCUGGUA [A45C A59U], the figure is 0.151; as for GUCCUCUUUCACGUGCGCGUGAAAGAGAGAAGUGAACCAGAGAACCACACAUUGUGGUAUAUUACCUGGUA [A45C G51A], 0.0999.
For the variant GUCCUCUUUCACGUGCGCGUGAAAGAGAGAAGUGAACCAGAGAACCACACGUUGUGGUAUAUUACCAGGUA [A45C U67A], the self-cleavage was found to be 0.118.
Regarding GUCCUCUUUCACGUGCGCGUGAAAGAGAGAAGUGAACCAGAGAUACACACGUUGUGGUAUAUUACCUAGUA [A44U G68A], the self-cleavage is 0.116.
Turning to GUCCUCUUUCACGUGCGCGUGAAAGAGAGAAGUGAACCAGAGAUACACACGUUGUGGUAUAUUACCUCGUA [A44U G68C], the self-cleavage is 0.148.
The figure for GUCCUCUUUCACGUGCGCGUGAAAGAGAGAAGUGAACCAGAGAUACACAGGUUGUGGUAUAUUACCUGGUA [A44U C50G] is 0.156; for GUCCUCUUUCACGUGCGCGUGAAAGAGAGAAGUGAACCAGAGAUACACAAGUUGUGGUAUAUUACCUGGUA [A44U C50A] it is 0.172; for GUCCUCUUUCACGUGCGCGUGAAAGAGAGAAGUGAACCAGAGAACCACACGUUGUGGUAUAUUACAUGGUA [A45C C66A] it is 0.187.
With GUCCUCUUUCACGUGCGCGUGAAAGAGAGAAGUGAACCAGAGAACCACACGUUGUGGUAUAUUACUUGGUA [A45C C66U], the self-cleavage stood at 0.
On to GUCCUCUUUCACGUGCGCGUGAAAGAGAGAAGUGAACCAGAGAACCACACGUUGUGGUAUAUUACGUGGUA [A45C C66G], for which the self-cleavage was determined as 0.319.
As for GUCCUCUUUCACGUGCGCGUGAAAGAGAGAAGUGAACCAGAGAUACACACGUUGUGGUAUAGUACCUGGUA [A44U U62G], the self-cleavage stood at 0.0672.
With GUCCUCUUUCACGUGCGCGUGAAAGAGAGAAGUGAACCAGAGAUACACACGUUGUGGUAUACUACCUGGUA [A44U U62C], the self-cleavage came to 0.0868.
On to GUCCUCUUUCACGUGCGCGUGAAAGAGAGAAGUGAACCAGAGAUACAGACGUUGUGGUAUAUUACCUGGUA [A44U C48G], for which the self-cleavage is 0.12.
With GUCCUCUUUCACGUGCGCGUGAAAGAGAGAAGUGAACCAGAGAGACACACGUUGUUGUAUAUUACCUGGUA [A44G G56U], the self-cleavage worked out at 0.226.
Regarding GUCCUCUUUCACGUGCGCGUGAAAGAGAGAAGUGAACCAGAGAGACACACGUUGUGGUAUAUUACCGGGUA [A44G U67G], the self-cleavage was 0.149.
On to GUCCUCUUUCACGUGCGCGUGAAAGAGAGAAGUGAACCAGAGAGACACACGUUGUGGUAUAUUACCAGGUA [A44G U67A], for which the self-cleavage was determined as 0.161.
On to GUCCUCUUUCACGUGCGCGUGAAAGAGAGAAGUGAACCAGAGAUACACACGUUGUGGUAUAUUACCUGCUA [A44U G69C], for which the self-cleavage was found to be 0.159.
With GUCCUCUUUCACGUGCGCGUGAAAGAGAGAAGUGAACCAGAGAUACACACAUUGUGGUAUAUUACCUGGUA [A44U G51A], the self-cleavage was 0.157.
Take GUCCUCUUUCACGUGCGCGUGAAAGAGAGAAGUGAACCAGAGAUACACACCUUGUGGUAUAUUACCUGGUA [A44U G51C]: the self-cleavage came out at 0.246.
Consider GUCCUCUUUCACGUGCGCGUGAAAGAGAGAAGUGAACCAGAGAUACACACUUUGUGGUAUAUUACCUGGUA [A44U G51U], for which the self-cleavage stood at 0.096.
Regarding GUCCUCUUUCACGUGCGCGUGAAAGAGAGAAGUGAACCAGAGAACCACACGUUGUGGUAUAUUACCUAGUA [A45C G68A], the self-cleavage was found to be 0.229.
Regarding GUCCUCUUUCACGUGCGCGUGAAAGAGAGAAGUGAACCAGAGAACCACACGUUGUGGUAUAUUACCUUGUA [A45C G68U], the self-cleavage came out at 0.166.
In the case of GUCCUCUUUCACGUGCGCGUGAAAGAGAGAAGUGAACCAGAGAACCACACGUUGUGGUAUCUUACCUGGUA [A45C A61C], the self-cleavage is 0.239.
As for GUCCUCUUUCACGUGCGCGUGAAAGAGAGAAGUGAACCAGAGAACCACACGUUGUGGUAUUUUACCUGGUA [A45C A61U], the self-cleavage amounted to 0.186.
With GUCCUCUUUCACGUGCGCGUGAAAGAGAGAAGUGAACCAGAGAUACACACGUUGUGGUAGAUUACCUGGUA [A44U U60G], the self-cleavage was 0.179.
As for GUCCUCUUUCACGUGCGCGUGAAAGAGAGAAGUGAACCAGAGAUACACACGUUGUGGUAUAUUACCUGGUA [A44U], the figure is 0.141; as for GUCCUCUUUCACGUGCGCGUGAAAGAGAGAAGUGAACCAGAGAGACACACGUUGUGGUAAAUUACCUGGUA [A44G U60A], 0.171; as for GUCCUCUUUCACGUGCGCGUGAAAGAGAGAAGUGAACCAGAGAUAGACACGUUGUGGUAUAUUACCUGGUA [A44U C46G], 0.0928.
In the case of GUCCUCUUUCACGUGCGCGUGAAAGAGAGAAGUGAACCAGAGAUACACACGUUGUGCUAUAUUACCUGGUA [A44U G57C], the self-cleavage was 0.0924.
The figure for GUCCUCUUUCACGUGCGCGUGAAAGAGAGAAGUGAACCAGAGAUACACACGUUGUGUUAUAUUACCUGGUA [A44U G57U] is 0.206; for GUCCUCUUUCACGUGCGCGUGAAAGAGAGAAGUGAACCAGAGAACCGCACGUUGUGGUAUAUUACCUGGUA [A45C A47G] it is 0.0534.
Take GUCCUCUUUCACGUGCGCGUGAAAGAGAGAAGUGAACCAGAGAGACACACGUUGUGUUAUAUUACCUGGUA [A44G G57U]: the self-cleavage was 0.022.
As for GUCCUCUUUCACGUGCGCGUGAAAGAGAGAAGUGAACCAGAGAGACACACGUUGUGCUAUAUUACCUGGUA [A44G G57C], the figure is 0.148.
Turning to GUCCUCUUUCACGUGCGCGUGAAAGAGAGAAGUGAACCAGAGAGACACACGAUGUGGUAUAUUACCUGGUA [A44G U52A], the self-cleavage stood at 0.246.
In the case of GUCCUCUUUCACGUGCGCGUGAAAGAGAGAAGUGAACCAGAGAGACACACGUUGAGGUAUAUUACCUGGUA [A44G U55A], the self-cleavage turned out to be 0.0483.

Source of the values: the RNAGym collection of RNA variant scans (doi:10.7554/elife.80360).
